Results as given in article PMC5519134.

Target: FZD2-CRD-Fc, recombinant human Frizzled 2 cysteine-rich domain, Fc-tagged (human)
Test: BLI

“TcdB_(1-1830), truncated TcdB lacking the CROPs region (from UniProt P18177 1-1830) (domain or fragment)” was tested. Which Kd did it give?
Its Kd is 0.017 µM.
